Numbered stars: 1 amine (or outer) side, 2 acyl side, 3 side chain; on linkers, the order of the positions; unused ones are H or OH. Bridge positions count the residues as written; N and C are the ends. Side chains are listed from the residue outwards. Ends that are not written are not given here. * marks the point of attachment. C20 diacid = O=C(O)CCCCCCCCCCCCCCCCCCC(=O)*; γGlu = O=C(O)[C@H](CCC(=O)[*:2])N[*:1]
T1: rat calcitonin receptor (rat, UniProt P32214 25-516)
T1 construct: whole, on cells; Membranes of transiently transfected BHK tk'ts 13 cells; also called rCTR; rat calcitonin (a) receptor
T1 sequence (looked up): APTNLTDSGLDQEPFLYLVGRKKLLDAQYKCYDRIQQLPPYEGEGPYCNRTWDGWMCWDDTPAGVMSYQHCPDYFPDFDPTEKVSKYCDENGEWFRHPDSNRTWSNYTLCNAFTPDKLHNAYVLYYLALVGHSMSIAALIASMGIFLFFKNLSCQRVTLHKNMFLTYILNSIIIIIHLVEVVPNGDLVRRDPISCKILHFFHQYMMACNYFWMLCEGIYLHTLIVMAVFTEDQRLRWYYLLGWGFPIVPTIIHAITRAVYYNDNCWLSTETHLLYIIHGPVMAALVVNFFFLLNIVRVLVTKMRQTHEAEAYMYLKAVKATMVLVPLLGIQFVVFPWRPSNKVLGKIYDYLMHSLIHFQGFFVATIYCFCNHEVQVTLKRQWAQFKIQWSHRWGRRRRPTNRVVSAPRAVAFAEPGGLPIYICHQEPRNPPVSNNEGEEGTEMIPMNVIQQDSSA

T2: human calcitonin receptor (human, UniProt P30988 25-474)
T2 construct: whole, on cells; Membranes of stably transfected cells; also called hCTR; hCT
T2 sequence (looked up): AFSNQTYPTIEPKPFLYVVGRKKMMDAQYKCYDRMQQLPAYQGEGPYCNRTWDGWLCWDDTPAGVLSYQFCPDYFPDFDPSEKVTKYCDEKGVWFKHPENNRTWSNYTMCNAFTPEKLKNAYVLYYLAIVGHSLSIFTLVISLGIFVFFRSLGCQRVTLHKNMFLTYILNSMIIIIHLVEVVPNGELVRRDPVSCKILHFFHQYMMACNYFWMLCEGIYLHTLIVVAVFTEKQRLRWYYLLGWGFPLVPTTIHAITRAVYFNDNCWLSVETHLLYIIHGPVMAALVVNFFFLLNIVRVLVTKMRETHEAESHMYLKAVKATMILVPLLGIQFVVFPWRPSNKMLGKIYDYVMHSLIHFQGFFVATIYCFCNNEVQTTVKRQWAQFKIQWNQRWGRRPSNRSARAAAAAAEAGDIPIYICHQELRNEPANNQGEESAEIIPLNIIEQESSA

T3: rat amylin receptor (rat calcitonin receptor + rat RAMP 3) (rat, UniProt P32214 25-516; Q9JJ73 23-147)
T3 construct: whole, on cells; Membranes of transiently transfected BHK tk'ts 13 cells; also called rAmylin-R; rat amylin 3(a) receptor
T3 sequence (looked up) 1: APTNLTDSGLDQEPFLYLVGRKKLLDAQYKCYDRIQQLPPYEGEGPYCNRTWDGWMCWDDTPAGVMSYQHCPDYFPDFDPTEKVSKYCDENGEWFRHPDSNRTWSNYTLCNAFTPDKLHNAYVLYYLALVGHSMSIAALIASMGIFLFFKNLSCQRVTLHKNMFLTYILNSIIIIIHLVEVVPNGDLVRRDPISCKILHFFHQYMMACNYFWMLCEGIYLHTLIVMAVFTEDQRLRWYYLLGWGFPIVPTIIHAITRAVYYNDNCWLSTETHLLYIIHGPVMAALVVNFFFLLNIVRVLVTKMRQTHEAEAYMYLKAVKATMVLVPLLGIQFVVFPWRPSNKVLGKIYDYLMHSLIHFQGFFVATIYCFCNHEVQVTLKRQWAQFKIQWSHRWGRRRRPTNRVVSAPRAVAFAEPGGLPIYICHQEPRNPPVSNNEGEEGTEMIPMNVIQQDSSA
T3 sequence (looked up) 2: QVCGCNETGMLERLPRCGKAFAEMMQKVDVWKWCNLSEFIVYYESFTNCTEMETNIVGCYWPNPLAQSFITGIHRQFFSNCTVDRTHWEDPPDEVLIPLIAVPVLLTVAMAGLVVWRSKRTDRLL


Legend:
rat calcitonin receptor [1] = target: T1, rat calcitonin receptor; experiment: ratio of IC50 on rat calcitonin receptor to IC50 on rat amylin receptor (reference m40)
[2] = target: T2, human calcitonin receptor; experiment: ratio of IC50 on human calcitonin receptor to IC50 on human amylin receptor (reference m42), SPA competition
Outline: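 Competition binding by SPA uses membrane preparations (35 ng/μL final) in pH 7.4 Hepes buffer with 1 mM CaCl2 and 5 mM MgCl₂. Incubation lasts 120 min at 25° C, and IC₅₀ comes from one-site fitting.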

[3] = target: T3, rat amylin receptor (rat calcitonin …); experiment: SPA competition with 125I-rat amylin on membranes of BHK tk'ts 13 cells with rat calcitonin receptor + rat RAMP3 (Assay VI)
rat calcitonin receptor [4] = target: T1, rat calcitonin receptor; experiment: SPA competition with 125I-calcitonin on membranes of BHK tk'ts 13 cells with rat calcitonin receptor (Assay VIII)

Row | Binder | Ratio rCT/rAmylin binding (rat calcitonin receptor [1]) | Ratio hCT/hAmylin binding [2] | IC50 [3] [nM] | IC50 (rat calcitonin receptor [4]) [nM]
1 | K([γGlu-γGlu-C20 diacid])CNTATCATQRLAEFLRHSSPNFGAIPSSTNVGRETY-NH2 (disulfide 2-7; N-terminus assumed; SMILES CC[C@H](C)[C@H](NC(=O)[C@H](C)NC(=O)CNC(=O)[C@H](Cc1ccccc1)NC(=O)[C@H](CC(N)=O)NC(=O)[C@@H]1CCCN1C(=O)[C@H](CO)NC(=O)[C@H](CO)NC(=O)[C@H](Cc1c[nH]cn1)NC(=O)[C@H](CCCNC(=N)N)NC(=O)[C@H](CC(C)C)NC(=O)[C@H](Cc1ccccc1)NC(=O)[C@H](CCC(=O)O)NC(=O)[C@H](C)NC(=O)[C@H](CC(C)C)NC(=O)[C@H](CCCNC(=N)N)NC(=O)[C@H](CCC(N)=O)NC(=O)[C@@H](NC(=O)[C@H](C)NC(=O)[C@@H]1CSSC[C@H](NC(=O)[C@@H](N)CCCCNC(=O)CC[C@H](NC(=O)CC[C@H](NC(=O)CCCCCCCCCCCCCCCCCCC(=O)O)C(=O)O)C(=O)O)C(=O)N[C@@H](CC(N)=O)C(=O)N[C@@H]([C@@H](C)O)C(=O)N[C@@H](C)C(=O)N[C@@H]([C@@H](C)O)C(=O)N1)[C@@H](C)O)C(=O)N1CCC[C@H]1C(=O)N[C@@H](CO)C(=O)N[C@@H](CO)C(=O)N[C@H](C(=O)N[C@@H](CC(N)=O)C(=O)N[C@H](C(=O)NCC(=O)N[C@@H](CCCNC(=N)N)C(=O)N[C@@H](CCC(=O)O)C(=O)N[C@H](C(=O)N[C@@H](Cc1ccc(O)cc1)C(N)=O)[C@@H](C)O)C(C)C)[C@@H](C)O, Synthetic acylated analogue of human amylin) | 158 | 14.7 | 2.86 | 452
2 | K([γGlu-γGlu-C20 diacid])CNTATCATQRLAEFLRHSSPNFGAIPSSTNVGHETY-NH2 (disulfide 2-7; N-terminus assumed; SMILES CC[C@H](C)[C@H](NC(=O)[C@H](C)NC(=O)CNC(=O)[C@H](Cc1ccccc1)NC(=O)[C@H](CC(N)=O)NC(=O)[C@@H]1CCCN1C(=O)[C@H](CO)NC(=O)[C@H](CO)NC(=O)[C@H](Cc1c[nH]cn1)NC(=O)[C@H](CCCNC(=N)N)NC(=O)[C@H](CC(C)C)NC(=O)[C@H](Cc1ccccc1)NC(=O)[C@H](CCC(=O)O)NC(=O)[C@H](C)NC(=O)[C@H](CC(C)C)NC(=O)[C@H](CCCNC(=N)N)NC(=O)[C@H](CCC(N)=O)NC(=O)[C@@H](NC(=O)[C@H](C)NC(=O)[C@@H]1CSSC[C@H](NC(=O)[C@@H](N)CCCCNC(=O)CC[C@H](NC(=O)CC[C@H](NC(=O)CCCCCCCCCCCCCCCCCCC(=O)O)C(=O)O)C(=O)O)C(=O)N[C@@H](CC(N)=O)C(=O)N[C@@H]([C@@H](C)O)C(=O)N[C@@H](C)C(=O)N[C@@H]([C@@H](C)O)C(=O)N1)[C@@H](C)O)C(=O)N1CCC[C@H]1C(=O)N[C@@H](CO)C(=O)N[C@@H](CO)C(=O)N[C@H](C(=O)N[C@@H](CC(N)=O)C(=O)N[C@H](C(=O)NCC(=O)N[C@@H](Cc1c[nH]cn1)C(=O)N[C@@H](CCC(=O)O)C(=O)N[C@H](C(=O)N[C@@H](Cc1ccc(O)cc1)C(N)=O)[C@@H](C)O)C(C)C)[C@@H](C)O, Synthetic acylated analogue of human amylin) | 159 | 29.1 | 3.14 | 498
3 | K([γGlu-γGlu-C20 diacid])CNTATCATQRLAEFLRHSSPNFGAIPSSTNVGPRTY-NH2 (disulfide 2-7; N-terminus assumed; SMILES CC[C@H](C)[C@H](NC(=O)[C@H](C)NC(=O)CNC(=O)[C@H](Cc1ccccc1)NC(=O)[C@H](CC(N)=O)NC(=O)[C@@H]1CCCN1C(=O)[C@H](CO)NC(=O)[C@H](CO)NC(=O)[C@H](Cc1c[nH]cn1)NC(=O)[C@H](CCCNC(=N)N)NC(=O)[C@H](CC(C)C)NC(=O)[C@H](Cc1ccccc1)NC(=O)[C@H](CCC(=O)O)NC(=O)[C@H](C)NC(=O)[C@H](CC(C)C)NC(=O)[C@H](CCCNC(=N)N)NC(=O)[C@H](CCC(N)=O)NC(=O)[C@@H](NC(=O)[C@H](C)NC(=O)[C@@H]1CSSC[C@H](NC(=O)[C@@H](N)CCCCNC(=O)CC[C@H](NC(=O)CC[C@H](NC(=O)CCCCCCCCCCCCCCCCCCC(=O)O)C(=O)O)C(=O)O)C(=O)N[C@@H](CC(N)=O)C(=O)N[C@@H]([C@@H](C)O)C(=O)N[C@@H](C)C(=O)N[C@@H]([C@@H](C)O)C(=O)N1)[C@@H](C)O)C(=O)N1CCC[C@H]1C(=O)N[C@@H](CO)C(=O)N[C@@H](CO)C(=O)N[C@H](C(=O)N[C@@H](CC(N)=O)C(=O)N[C@H](C(=O)NCC(=O)N1CCC[C@H]1C(=O)N[C@@H](CCCNC(=N)N)C(=O)N[C@H](C(=O)N[C@@H](Cc1ccc(O)cc1)C(N)=O)[C@@H](C)O)C(C)C)[C@@H](C)O, Synthetic acylated analogue of human amylin; also called compound 110) | 113 | 53.6 | 0.339 | 38.3

More lines, now with the values ahead:

Row | Ratio rCT/rAmylin binding (rat calcitonin receptor [1]) | Ratio hCT/hAmylin binding [2] | IC50 [3] [nM] | IC50 (rat calcitonin receptor [4]) [nM] | Binder
4 | 73 | 27.3 | 0.288 | 21 | K([γGlu-γGlu-C20 diacid])CNTATCATQRLAEFLRHSSPNFGAIPSSTNVGPHTY-NH2 (disulfide 2-7 (inferred), Synthetic acylated analogue of human amylin)
5 | 10.6 | 0.4 | 0.152 | 1.61 | K([γGlu-γGlu-C20 diacid])CNTATCATQRLAEFLRHSSPNFGAIPSSTNVGPETP-NH2 (disulfide 2-7; N-terminus assumed; SMILES CC[C@H](C)[C@H](NC(=O)[C@H](C)NC(=O)CNC(=O)[C@H](Cc1ccccc1)NC(=O)[C@H](CC(N)=O)NC(=O)[C@@H]1CCCN1C(=O)[C@H](CO)NC(=O)[C@H](CO)NC(=O)[C@H](Cc1c[nH]cn1)NC(=O)[C@H](CCCNC(=N)N)NC(=O)[C@H](CC(C)C)NC(=O)[C@H](Cc1ccccc1)NC(=O)[C@H](CCC(=O)O)NC(=O)[C@H](C)NC(=O)[C@H](CC(C)C)NC(=O)[C@H](CCCNC(=N)N)NC(=O)[C@H](CCC(N)=O)NC(=O)[C@@H](NC(=O)[C@H](C)NC(=O)[C@@H]1CSSC[C@H](NC(=O)[C@@H](N)CCCCNC(=O)CC[C@H](NC(=O)CC[C@H](NC(=O)CCCCCCCCCCCCCCCCCCC(=O)O)C(=O)O)C(=O)O)C(=O)N[C@@H](CC(N)=O)C(=O)N[C@@H]([C@@H](C)O)C(=O)N[C@@H](C)C(=O)N[C@@H]([C@@H](C)O)C(=O)N1)[C@@H](C)O)C(=O)N1CCC[C@H]1C(=O)N[C@@H](CO)C(=O)N[C@@H](CO)C(=O)N[C@H](C(=O)N[C@@H](CC(N)=O)C(=O)N[C@H](C(=O)NCC(=O)N1CCC[C@H]1C(=O)N[C@@H](CCC(=O)O)C(=O)N[C@H](C(=O)N1CCC[C@H]1C(N)=O)[C@@H](C)O)C(C)C)[C@@H](C)O, Synthetic acylated analogue of human amylin)

Source: US20140087995A1 (published 2014)
